Measurements as given in article PMC7503845.

Legend:
[1] = target: full length recombinant human active CK1 epsilon (CK1ε) (human) (UniProt P49674)
[2] = target: full length recombinant human active CK1 epsilon (CK1ε) (human) (UniProt P49674); remark: listed apart in the source
[3] = target: full length recombinant human active CK1 epsilon (CK1ε) (human) (UniProt P49674); remark: listed apart in the source
[4] = target: full length recombinant human active CK1 epsilon (CK1ε) (human) (UniProt P49674); remark: listed apart in the source

UniProt P49674, sequence (P49674 whole entry): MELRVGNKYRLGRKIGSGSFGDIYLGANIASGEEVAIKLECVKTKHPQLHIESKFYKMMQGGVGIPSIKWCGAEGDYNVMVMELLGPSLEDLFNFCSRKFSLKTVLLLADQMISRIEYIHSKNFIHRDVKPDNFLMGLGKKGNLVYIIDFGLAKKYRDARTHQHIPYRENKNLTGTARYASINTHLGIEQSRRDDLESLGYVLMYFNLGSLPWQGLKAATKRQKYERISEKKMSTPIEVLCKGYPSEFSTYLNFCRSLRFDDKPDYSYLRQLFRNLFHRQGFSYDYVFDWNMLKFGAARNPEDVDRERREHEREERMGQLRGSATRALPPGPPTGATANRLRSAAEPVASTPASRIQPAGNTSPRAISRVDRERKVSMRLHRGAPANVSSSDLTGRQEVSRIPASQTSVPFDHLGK

Question: “dephosphorylated native casein mixture (Casein)” was tested. Which Km^Casein of the kinase reaction at fixed ATP of 7.5, 15, 30 and 60 μM (4.6, 3.9, 4.8 and 4.0 μM) [1] did it give?
Answer: 4.8 µM

Question: And the kcat / Km^Casein of the kinase reaction at fixed ATP of 7.5, 15, 30 and 60 μM (2.5, 4.1, 6.3 and 10.8 min^-1 μM^-1) [1]?
Answer: 180000 M⁻¹ s⁻¹

Question: Which Km of CK1ε for DDX3X in the kinase reaction (33P incorporation; DDX3X 0.06-1 μM, ATP fixed at 30 μM, 25 ng CK1ε, 15 min) [2] does the source give for “recombinant human DDX3X wild-type (WT) (from UniProt O00571 1-662) (enzyme)” here?
Answer: 0.2 µM

Question: And the Km^DDX3X of the kinase reaction at fixed ATP of 15, 30, 60 and 120 μM (0.6, 0.5, 0.7 and 0.7 μM) [3]?
Answer: 0.7 µM

Question: And the kcat / Km^DDX3X of the kinase reaction at fixed ATP of 15, 30, 60 and 120 μM (5.5, 8.4, 11.9 and 18.9 min^-1 μM^-1) [3]?
Answer: 315000 M⁻¹ s⁻¹

B1: full length recombinant human disheveled 2 (Dvl2) (natural protein)
chain: MAGSSTGGGGVGETKVIYHLDEEETPYLVKIPVPAERITLGDFKSVLQRPAGAKYFFKSMDQDFGVVKEEISDDNARLPCFNGRVVSWLVSSDNPQPEMAPPVHEPRAELAPPAPPLPPLPPERTSGIGDSRPPSFHPNVSSSHENLEPETETESVVSLRRERPRRRDSSEHGAGGHRTGGPSRLERHLAGYESSSTLMTSELESTSLGDSDEEDTMSRFSSSTEQSSASRLLKRHRRRRKQRPPRLERTSSFSSVTDSTMSLNIITVTLNMEKYNFLGISIVGQSNERGDGGIYIGSIMKGGAVAADGRIEPGDMLLQVNDMNFENMSNDDAVRVLRDIVHKPGPIVLTVAKCWDPSPQAYFTLPRNEPIQPIDPAAWVSHSAALTGTFPAYPGSSSMSTITSGSSLPDGCEGRGLSVHTDMASVTKAMAAPESGLEVRDRMWLKITIPNAFLGSDVVDWLYHHVEGFPERREARKYASGLLKAGLIRHTVNKITFSEQCYYVFGDLSGGCESYLVNLSLNDNDGSSGASDQDTLAPLPGATPWPLLPTFSYQYPAPHPYSPQPPPYHELSSYTYGGGSASSQHSEGSRSSGSTRSDGGAGRTGRPEERAPESKSGSGSESEPSSRGGSLRRGGEASGTSDGGPPPSRGSTGGAPNLRAHPGLHPYGPPPGMALPYNPMMVVMMPPPPPPVPPAVQPPGAPPVRDLGSVPPELTASRQSFHMAMGNPSEFFVDVM
Question: B1 was tested. Which Km^Dvl2 of the kinase reaction at fixed ATP of 7.5, 30, 60 and 120 μM (0.5, 1.1, 0.9 and 0.4 μM) [4] did it give?
Answer: 1.1 µM

Question: What about the kcat / Km^Dvl2 of the kinase reaction at fixed ATP of 7.5, 30, 60 and 120 μM (76.4, 98.8, 159.3 and 261.7 min^-1 μM^-1) [4] of the same molecule?
Answer: 4.36e+06 M⁻¹ s⁻¹
